Measured values: PMC6056538

Experiments:
[1] = biological target: T1 with SpyTag, flanked by six residue glycine-serine linkers, inserted on the lumenal side (Haliangium ochraceum | not stated); assay: fluorescence intensity of purified shells; number of cfp cargo proteins per shell calculated from fluorescence intensity values of shells loaded in vivo and purified by CAP and anion exchange
[2] = biological target: T1 with SpyCatcher, flanked by six residue glycine-serine linkers, inserted on the lumenal side (Haliangium ochraceum | not stated); assay: as above

Substance	cfp cargo copies per shell (copies per shell) [1]	cfp cargo copies per shell (copies per shell) [2]
SpyCatcher-mTurquoise2-6xHis (SpyCatcher-fused cyan fluorescent protein cargo)	58	
SpyTag-mTurquoise2-6xHis (SpyTagged cyan fluorescent protein cargo)		73
